Test results reported in publication PMC11253609, “Ancient nitrogenases are ATP dependent” (mBio, 2024).

Legend:
[1] = biological target: T1, Extant Strep-NifD2K2 (dinitrogenase, MoFe protein), Azotobacter vinelandii strain DJ2102 (Azotobacter vinelandii) (UniProt P07328)
T1 sequence 1: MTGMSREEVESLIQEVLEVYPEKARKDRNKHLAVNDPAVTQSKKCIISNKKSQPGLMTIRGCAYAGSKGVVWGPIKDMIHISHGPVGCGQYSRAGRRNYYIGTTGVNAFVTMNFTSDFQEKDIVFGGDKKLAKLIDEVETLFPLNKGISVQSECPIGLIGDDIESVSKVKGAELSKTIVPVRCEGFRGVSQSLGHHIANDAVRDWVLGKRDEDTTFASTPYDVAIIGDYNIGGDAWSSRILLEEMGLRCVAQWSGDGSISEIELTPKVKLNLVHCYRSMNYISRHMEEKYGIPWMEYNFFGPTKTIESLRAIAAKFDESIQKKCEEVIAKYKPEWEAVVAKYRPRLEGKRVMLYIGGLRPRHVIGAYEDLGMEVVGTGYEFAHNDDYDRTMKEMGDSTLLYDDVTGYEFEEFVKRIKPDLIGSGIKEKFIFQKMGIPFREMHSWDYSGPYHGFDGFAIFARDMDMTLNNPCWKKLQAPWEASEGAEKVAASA
T1 sequence 2: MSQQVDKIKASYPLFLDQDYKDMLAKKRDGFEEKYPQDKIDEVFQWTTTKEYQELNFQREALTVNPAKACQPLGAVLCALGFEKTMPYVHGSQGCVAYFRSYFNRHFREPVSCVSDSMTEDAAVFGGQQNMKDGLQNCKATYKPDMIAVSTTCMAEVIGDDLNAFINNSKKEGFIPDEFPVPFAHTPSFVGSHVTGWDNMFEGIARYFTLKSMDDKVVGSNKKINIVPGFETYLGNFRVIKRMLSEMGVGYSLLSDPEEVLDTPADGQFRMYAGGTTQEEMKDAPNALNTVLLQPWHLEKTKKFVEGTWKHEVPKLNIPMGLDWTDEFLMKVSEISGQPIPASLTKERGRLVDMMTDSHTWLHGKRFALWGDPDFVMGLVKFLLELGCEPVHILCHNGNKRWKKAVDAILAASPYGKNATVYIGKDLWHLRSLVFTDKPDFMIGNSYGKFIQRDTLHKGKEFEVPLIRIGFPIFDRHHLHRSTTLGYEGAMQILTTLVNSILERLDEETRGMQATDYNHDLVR

[2] = biological target: T2, Extant Strep-II-tagged NifD (nitrogenase molybdenum-iron protein alpha chain), Azotobacter vinelandii strain … (Azotobacter vinelandii, UniProt P07328 1-492); assay: co-purification (Strep-Tactin affinity chromatography) with densitometry of SDS-PAGE bands; Strep-II-tagged NifD captured on Strep-Tactin from A. vinelandii cells; NifK found with it on SDS-PAGE (Coomassie blue); anaerobic handling; details: partners not purified
T2 construct: nitrogenase molybdenum-iron protein alpha chain NifD, Azotobacter vinelandii, UniProtKB P07328; expressed from the A. vinelandii genome; The end that carries the Strep-II tag is stated only for the ancestral NifD (N-terminus); also called Strep-II-tagged WT NifD; D subunit
T2 sequence (looked up): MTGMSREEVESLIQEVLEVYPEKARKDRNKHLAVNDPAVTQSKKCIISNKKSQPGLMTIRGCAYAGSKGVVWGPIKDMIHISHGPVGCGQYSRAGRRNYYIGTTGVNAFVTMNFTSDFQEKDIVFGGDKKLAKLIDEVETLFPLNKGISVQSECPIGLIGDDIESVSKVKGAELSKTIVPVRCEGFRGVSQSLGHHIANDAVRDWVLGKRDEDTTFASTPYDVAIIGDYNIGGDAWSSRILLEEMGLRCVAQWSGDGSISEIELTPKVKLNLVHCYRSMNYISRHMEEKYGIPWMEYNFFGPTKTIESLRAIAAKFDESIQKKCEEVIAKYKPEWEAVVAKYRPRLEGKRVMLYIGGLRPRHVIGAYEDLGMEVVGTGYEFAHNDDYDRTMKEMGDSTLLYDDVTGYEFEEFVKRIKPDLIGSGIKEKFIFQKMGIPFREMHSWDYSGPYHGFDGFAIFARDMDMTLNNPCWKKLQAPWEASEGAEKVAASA

## Extant NifH2 (dinitrogenase reductase, nitrogenase iron protein 1), Azotobacter vinelandii strain DJ884 (from UniProt P00459 2-290) (enzyme)
[1]
  inorganic phosphate released per electron transferred (Pi/e- ratio) during N2 reduction, 2 min under 1 atm N2; 0.42 µM NifD2K2 and 8.4 µM NifH2, 10 mM MgATP: 2.8 ATP/e-

B1: Extant NifK (nitrogenase molybdenum-iron protein beta chain), Azotobacter vinelandii strain DJ2102 (enzyme, UniProt P07329 1-523, looked up)
chain: MSQQVDKIKASYPLFLDQDYKDMLAKKRDGFEEKYPQDKIDEVFQWTTTKEYQELNFQREALTVNPAKACQPLGAVLCALGFEKTMPYVHGSQGCVAYFRSYFNRHFREPVSCVSDSMTEDAAVFGGQQNMKDGLQNCKATYKPDMIAVSTTCMAEVIGDDLNAFINNSKKEGFIPDEFPVPFAHTPSFVGSHVTGWDNMFEGIARYFTLKSMDDKVVGSNKKINIVPGFETYLGNFRVIKRMLSEMGVGYSLLSDPEEVLDTPADGQFRMYAGGTTQEEMKDAPNALNTVLLQPWHLEKTKKFVEGTWKHEVPKLNIPMGLDWTDEFLMKVSEISGQPIPASLTKERGRLVDMMTDSHTWLHGKRFALWGDPDFVMGLVKFLLELGCEPVHILCHNGNKRWKKAVDAILAASPYGKNATVYIGKDLWHLRSLVFTDKPDFMIGNSYGKFIQRDTLHKGKEFEVPLIRIGFPIFDRHHLHRSTTLGYEGAMQILTTLVNSILERLDEETRGMQATDYNHDLVR
notes: nitrogenase molybdenum-iron protein beta chain NifK, Azotobacter vinelandii, UniProtKB P07329; also called K subunit
[2]
  stoichiometry N: 0.93 D:K
